In patent US20250333523A1 (Alector, published 2025):
Substitutions are numbered along the chain they refer to.

Tests used:
[1] = target: T1, Avi/His-HuIL18BPa (recombinant human IL-18BP isoform A with Avi and poly-His tags) (human, biotinylated with BirA on the Avi tag in some assays); assay: cell-based or functional assay
T1 chain: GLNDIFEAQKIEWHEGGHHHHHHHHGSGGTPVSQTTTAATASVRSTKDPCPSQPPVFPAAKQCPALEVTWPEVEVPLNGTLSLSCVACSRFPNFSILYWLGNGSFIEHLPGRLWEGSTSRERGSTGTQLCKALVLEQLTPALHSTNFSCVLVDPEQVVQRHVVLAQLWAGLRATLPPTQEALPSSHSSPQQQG

[2] = target: T2, Avi/HisMsIL18BPd (recombinant mouse IL-18BP with Avi and poly-His tags) (mouse, biotinylated with BirA on the Avi tag in some assays); assay: cell-based or functional assay
T2 chain: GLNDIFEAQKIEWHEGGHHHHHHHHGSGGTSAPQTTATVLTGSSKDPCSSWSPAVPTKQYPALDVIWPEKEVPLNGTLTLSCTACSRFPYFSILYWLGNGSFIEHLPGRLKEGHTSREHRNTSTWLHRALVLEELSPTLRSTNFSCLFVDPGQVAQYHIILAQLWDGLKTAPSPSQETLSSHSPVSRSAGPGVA

[3] = target: T1, Avi/His-HuIL18BPa (recombinant human …); assay: SPR Biacore T200, IgG captured on Protein A/G
[4] = target: T3, His/Avi-CynoIL18BP (recombinant cynomolgus IL-18BP with His and Avi tags) (cynomolgus monkey); assay: SPR Biacore T200, IgG captured on Protein A/G
T3 construct: also called cynomolgus IL-18BP-Avi-His
T3 chain: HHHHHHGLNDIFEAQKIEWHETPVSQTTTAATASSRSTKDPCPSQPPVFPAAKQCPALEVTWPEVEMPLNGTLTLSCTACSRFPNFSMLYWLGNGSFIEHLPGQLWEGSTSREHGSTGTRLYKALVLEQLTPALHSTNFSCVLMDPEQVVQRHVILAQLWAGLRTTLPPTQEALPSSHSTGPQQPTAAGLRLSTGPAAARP

B1: anti-IL-18BP antibody variant BP-04.04 (antibody, V domains shown)
VH: QVQLVQSGAEVKKPGASVKVSCKASGYTFTDYDMHWVRQAPGQGLEWMGIISTYYGDVSYAQKKQGRVTMTRDKSTSTVYMELSSLRSEDTAVYYCARSGTYNYGTRESHPLDYWGQGTLVTVSS
VL: DIQMTQSPSSVSASVGDRVTITCRASDNVYSNLAWYQQKPGKAPKLLIYGAISLADGVPSRFSGSGSGTDFTLTISSLQPEDFATYYCQHFWGNPYTFGQGTKLEIK
EC50 of IFNγ release, human PBMCs [1]: 18.6 nM
EC50 of IFNγ release, mouse splenocytes [2]: 31.8 nM

B2: anti-IL-18BP antibody variant BP-04.32 (antibody, V domains shown)
VH: B1 VH with I51Y, K64F, N103Y, P111A
VL: B1 VL
EC50 of IFNγ release, human PBMCs [1]: 0.838 nM
EC50 of IFNγ release, mouse splenocytes [2]: 9.61 nM
Kd [3]: 20 nM
koff [3]: 0.0074 s⁻¹
kon [3]: 370000 M⁻¹ s⁻¹
Kd [4]: 59 nM
koff [4]: 0.02 s⁻¹
kon [4]: 340000 M⁻¹ s⁻¹

B3: anti-IL-18BP antibody variant BP-04.03 (antibody, V domains shown)
VH: B1 VH with K64F, D90N, N103Y, S109Q, P111A
VL: B1 VL
EC50 of IFNγ release, human PBMCs [1]: 10.5 nM
EC50 of IFNγ release, mouse splenocytes [2]: 0.881 nM
Kd [3]: 1.9 nM
koff [3]: 0.00091 s⁻¹
kon [3]: 470000 M⁻¹ s⁻¹
Kd [4]: 3.1 nM
koff [4]: 0.0013 s⁻¹
kon [4]: 420000 M⁻¹ s⁻¹

B4: anti-IL-18BP antibody variant BP-04.05 (antibody, V domains shown)
VH: B1 VH with D57V, N103Y, P111A, L112F
VL: B1 VL
EC50 of IFNγ release, human PBMCs [1]: 3.18 nM
EC50 of IFNγ release, mouse splenocytes [2]: 4.92 nM
Kd [3]: 0.67 nM
koff [3]: 0.00034 s⁻¹
kon [3]: 510000 M⁻¹ s⁻¹
Kd [4]: 0.83 nM
koff [4]: 0.00038 s⁻¹
kon [4]: 460000 M⁻¹ s⁻¹

B5: anti-IL-18BP antibody variant BP-04.07 (antibody, V domains shown)
VH: B1 VH with D57V, P111A
VL: B1 VL
EC50 of IFNγ release, human PBMCs [1]: 4.3 nM
EC50 of IFNγ release, mouse splenocytes [2]: 51.9 nM
Kd [3]: 1.9 nM
koff [3]: 0.00068 s⁻¹
kon [3]: 350000 M⁻¹ s⁻¹
Kd [4]: 2.4 nM
koff [4]: 0.00076 s⁻¹
kon [4]: 320000 M⁻¹ s⁻¹

B6: anti-IL-18BP antibody variant BP-04.08 (antibody, V domains shown)
VH: B1 VH with I51Y, P111A
VL: B1 VL
EC50 of IFNγ release, human PBMCs [1]: 174 nM
EC50 of IFNγ release, mouse splenocytes [2]: 94.1 nM
Kd [3]: 16 nM
koff [3]: 0.0035 s⁻¹
kon [3]: 210000 M⁻¹ s⁻¹
Kd [4]: 56 nM
koff [4]: 0.014 s⁻¹
kon [4]: 260000 M⁻¹ s⁻¹

B7: anti-IL-18BP antibody variant BP-04.09 (antibody, V domains shown)
VH: B1 VH with I51Y, D57V, K64F, N103Y, P111A, L112F
VL: B1 VL
EC50 of IFNγ release, human PBMCs [1]: 3.74 nM
EC50 of IFNγ release, mouse splenocytes [2]: 2.04 nM
Kd [3]: 0.52 nM
koff [3]: 0.00028 s⁻¹
kon [3]: 530000 M⁻¹ s⁻¹
Kd [4]: 1.3 nM
koff [4]: 0.0006 s⁻¹
kon [4]: 450000 M⁻¹ s⁻¹

B8: anti-IL-18BP antibody variant BP-04.24 (antibody, V domains shown)
VH: B1 VH with I51Y, K64F, N103Y
VL: B1 VL
EC50 of IFNγ release, human PBMCs [1]: 4.84 nM
Kd [3]: 16 nM
koff [3]: 0.0047 s⁻¹
kon [3]: 290000 M⁻¹ s⁻¹
Kd [4]: 29 nM
koff [4]: 0.0059 s⁻¹
kon [4]: 200000 M⁻¹ s⁻¹

B9: anti-IL-18BP antibody variant BP-04.06 (antibody, V domains shown)
VH: B1 VH with D57V, N103Y
VL: B1 VL
EC50 of IFNγ release, human PBMCs [1]: 1.32 nM
EC50 of IFNγ release, mouse splenocytes [2]: 67.6 nM

B10: anti-IL-18BP antibody variant BP-04.10 (antibody, V domains shown)
VH: B1 VH with I51Y, D57V, K64F, N103Y
VL: B1 VL
EC50 of IFNγ release, human PBMCs [1]: 10.5 nM
EC50 of IFNγ release, mouse splenocytes [2]: 501 nM

B11: anti-IL-18BP antibody variant BP-04.11 (antibody, V domains shown)
VH: B1 VH with I51Y, D57V, K64F, P111A
VL: B1 VL
EC50 of IFNγ release, human PBMCs [1]: 3.94 nM
EC50 of IFNγ release, mouse splenocytes [2]: 3.61 nM

B12: anti-IL-18BP antibody variant BP-04.12 (antibody, V domains shown)
VH: B1 VH with I51Y, D57V, N103Y, P111A
VL: B1 VL
EC50 of IFNγ release, human PBMCs [1]: 31.9 nM
EC50 of IFNγ release, mouse splenocytes [2]: 0.865 nM

B13: anti-IL-18BP antibody variant BP-04.13 (antibody, V domains shown)
VH: B1 VH with K64F, N103Y, L112F
VL: B1 VL
EC50 of IFNγ release, human PBMCs [1]: 16.6 nM
EC50 of IFNγ release, mouse splenocytes [2]: 41.4 nM

B14: anti-IL-18BP antibody variant BP-04.14 (antibody, V domains shown)
VH: B1 VH with K64F, P111A, L112F
VL: B1 VL
EC50 of IFNγ release, human PBMCs [1]: 543 nM
EC50 of IFNγ release, mouse splenocytes [2]: 21.2 nM

B15: anti-IL-18BP antibody variant BP-04.16 (antibody, V domains shown)
VH: B1 VH with N103Y, P111A, L112F
VL: B1 VL
EC50 of IFNγ release, human PBMCs [1]: 3.34 nM
EC50 of IFNγ release, mouse splenocytes [2]: 220 nM

B16: anti-IL-18BP antibody variant BP-04.17 (antibody, V domains shown)
VH: B1 VH with N103Y
VL: B1 VL
EC50 of IFNγ release, human PBMCs [1]: 8.89 nM
EC50 of IFNγ release, mouse splenocytes [2]: 14.6 nM

B17: anti-IL-18BP antibody variant BP-04.18 (antibody, V domains shown)
VH: B1 VH with P111A
VL: B1 VL
EC50 of IFNγ release, human PBMCs [1]: 11.3 nM
EC50 of IFNγ release, mouse splenocytes [2]: 28.4 nM

B18: anti-IL-18BP antibody variant BP-04.19 (antibody, V domains shown)
VH: B1 VH with D57V, K64F, N103Y, P111A, L112F
VL: B1 VL
EC50 of IFNγ release, human PBMCs [1]: 3.1 nM
EC50 of IFNγ release, mouse splenocytes [2]: 21.6 nM

B19: anti-IL-18BP antibody variant BP-04.20 (antibody, V domains shown)
VH: B1 VH with D57V, K64F, N103Y
VL: B1 VL
EC50 of IFNγ release, human PBMCs [1]: 4.06 nM
EC50 of IFNγ release, mouse splenocytes [2]: 28.7 nM

B20: anti-IL-18BP antibody variant BP-04.21 (antibody, V domains shown)
VH: B1 VH with D57V, K64F, P111A
VL: B1 VL
EC50 of IFNγ release, human PBMCs [1]: 4.48 nM
EC50 of IFNγ release, mouse splenocytes [2]: 595 nM

B21: anti-IL-18BP antibody variant BP-04.22 (antibody, V domains shown)
VH: B1 VH with D57V, N103Y, P111A
VL: B1 VL
EC50 of IFNγ release, human PBMCs [1]: 7.71 nM
EC50 of IFNγ release, mouse splenocytes [2]: 368 nM

B22: anti-IL-18BP antibody variant BP-04.23 (antibody, V domains shown)
VH: B1 VH with I51Y, K64F, N103Y, P111A, L112F
VL: B1 VL
EC50 of IFNγ release, human PBMCs [1]: 146 nM
EC50 of IFNγ release, mouse splenocytes [2]: 3.5 nM

B23: anti-IL-18BP antibody variant BP-04.26 (antibody, V domains shown)
VH: B1 VH with I51Y, D57V, K64F, N103Y, P111A
VL: B1 VL
EC50 of IFNγ release, human PBMCs [1]: 36.2 nM
EC50 of IFNγ release, mouse splenocytes [2]: 6.02 nM

B24: anti-IL-18BP antibody variant BP-04.27 (antibody, V domains shown)
VH: B1 VH with K64F, N103Y, P111A, L112F
VL: B1 VL
EC50 of IFNγ release, human PBMCs [1]: 1.28 nM
EC50 of IFNγ release, mouse splenocytes [2]: 39.6 nM

B25: anti-IL-18BP antibody variant BP-04.30 (antibody, V domains shown)
VH: B1 VH with N103Y, P111A
VL: B1 VL
EC50 of IFNγ release, mouse splenocytes [2]: 7.43 nM

B26: anti-IL-18BP antibody variant BP-04.31 (antibody, V domains shown)
VH: B1 VH with D57V, K64F, N103Y, P111A
VL: B1 VL
EC50 of IFNγ release, human PBMCs [1]: 6.3 nM

B27: anti-IL-18BP antibody variant BP-04.01 (antibody, V domains shown)
VH: QVQLVQSGAEVKKPGASVKVSCKASGYTFTDYDMWVRQAPGQGLEWMGIISTYYGDVSYAIKFQGRVTMTRDKSTSTVYMELSSLRSEDTAVYYCARSGTYYYGTRESALDYWGQGTLVTVSS
VL: B1 VL
EC50 of IFNγ release, mouse splenocytes [2]: 1.67 nM

B28: anti-IL-18BP antibody variant BP-04.02 (antibody, V domains shown)
VH: B1 VH with M34L, K64F, T101M, N103Y, P111A
VL: B1 VL
EC50 of IFNγ release, human PBMCs [1]: 41.5 nM
EC50 of IFNγ release, mouse splenocytes [2]: 12.3 nM
